Legend:
[1] = molecular target: T1, human CD47 protein on the cell surface (human, UniProt Q08722 19-323); assay: FACS on Raji cells (endogenous human CD47); negative control
T1 construct: whole, on cells; One molecule is used for overexpressed (CHO-K1) and endogenous (Raji, Toledo, REC-1, red blood cells) human CD47; the cell is named under assay; also called CD47 on the surface of Raji, Toledo, REC-1 cells; CD47 on the surface of human red blood cells

[2] = molecular target: T1, human CD47 protein on the cell surface; assay: FACS on REC-1 cells (endogenous human CD47); negative control
[3] = molecular target: T1, human CD47 protein on the cell surface; assay: FACS on Toledo cells (endogenous human CD47); negative control
[4] = molecular target: CD47 on the surface of cynomolgus monkey B cells (cynomolgus monkey); assay: FACS on cynomolgus monkey B cells, antibody 66.7 nM; negative control
[5] = molecular target: T2, CD47 on the surface of cynomolgus monkey B cells (cynomolgus monkey, UniProt A0A5F8AK49 19-323 (rhesus entry)); assay: FACS on cynomolgus monkey B cells, antibody 66.7 nM
T2 construct: whole, on cells; also called cynomolgus monkey CD47
From the text: The cells were washed three times and analyzed by flow cytometry.

[6] = molecular target: T1, human CD47 protein on the cell surface; assay: FACS on Raji cells (endogenous human CD47)
Method: (§1) Human CD47 was endogenously expressed on the cell surface of human Burkitt lymphoma cell line Raji. […] The diluted antibodies were mixed with and co-incubated with Raji cells (purchased from ATCC) (5*10⁵ cells/well) at 4° C. for 1 hour. […] The cells were washed three times with PBS containing 2% fetal bovine serum (FBS), and then the fluorescence signal was detected by CantoII (BD Biosciences) flow cytometry, and according to the average fluorescence intensity (MFI) of the signal, GraphPad was used for fitting a concentration dependent curve, and the EC₅₀ was calculated.

[7] = molecular target: T1, human CD47 protein on the cell surface; assay: FACS on REC-1 cells (endogenous human CD47)
Method: as §1

[8] = molecular target: T1, human CD47 protein on the cell surface; assay: FACS on Toledo cells (endogenous human CD47)
Method: as §1

[9] = molecular target: T1, human CD47 protein on the cell surface; assay: FACS on human red blood cells (endogenous CD47)
Method: The cells were washed three times with PBS containing 2% fetal bovine serum (FBS), and then the fluorescence signal was detected by Canto II (BD Biosciences) flow cytometry. According to the average fluorescence intensity (MFI) of the signal, GraphPad was used for fitting a concentration dependent curve, and the EC₅₀ was calculated.

[10] = molecular target: T3, recombinant protein hCD47-Fc containing the extracellular domain of human CD47 fused with the Fc fragment of … (human, UniProt Q08722 19-139); assay: competition ELISA as in Example 1.3: hCD47-Fc coated, SIRPα-His as competitor ligand, anti-His-HRP
T3 construct: extracellular domain; Bought reagent; also called ACROBiosystems Cat: CD7-H5256; not shown: Fc fragment of human IgG

[11] = molecular target: T4, human CD47-His fusion protein (human, UniProt Q08722 19-139); assay: SPR (Biacore T200): antibody captured by anti-human Fc on CM5, human CD47-His as analyte, 1:1 Langmuir fit
T4 construct: Bought reagent; also called ACROBiosystems Cat: CD7-H5227; not shown: His tag

[12] = molecular target: T1, human CD47 protein on the cell surface; assay: FACS on CHO-K1 cells overexpressing human CD47
Method: A human CD47 protein (NCBI accession number: NP_001768.1) was overexpressed in hamster ovary cell line CHO-K1 to establish CHO-K1 cell line overexpressing the human CD47 protein. […] After washing twice with iced PBS, the cells were incubated with an iFluor647-labeled goat anti-mouse IgG (H+L) antibody (Genscript) at 4° C. in the dark for 40 minutes. The cells were washed twice with iced PBS, and then the fluorescence signal was detected by Calibur (BD Biosciences) flow cytometry, and according to the average fluorescence intensity (MFI) of the signal, GraphPad was used for fitting a concentration dependent curve, and the EC₅₀ was calculated.

[13] = molecular target: T1, human CD47 protein on the cell surface; assay: FACS on Raji cells (endogenous human CD47), n = 3
Method: as §1

[14] = molecular target: T3, recombinant protein hCD47-Fc containing …; assay: competition ELISA: hCD47-Fc coated, SIRPα-His 2.5 µg/ml as competitor ligand, anti-His-HRP
Method: The recombinant protein hCD47-Fc containing the extracellular domain of human CD47 fused with the Fc fragment of human IgG (ACROBiosystems, Cat: CD7-H5256) was coated onto a 96-well plate and incubated overnight at 4° C. After the plate was washed 3 times with PBST (PBS containing 0.5% Tween-20), PBST containing 1% BSA was added for blocking the plate for 2 hours. […] After the 96-well plate was incubated at 37° C. for 30 minutes, the plate was washed 5 times with PBST, and a TMD (Surmodics, Cat: TMBW-1000-01) developing solution was added, and was incubated in the dark for 15 minutes. 2N H₂SO₄ was added to terminate the color-developing reaction. OD₄₅₀ was read on a microplate reader.

| Molecule | Max MFI [5] | Max MFI compared with Ch-125G4m-m35 value, % [5] | further results |
| --- | --- | --- | --- |
| negative isotype control antibody (isotype), human IgG4P |  |  | Max MFI [1]: 175 MFI; Max MFI [2]: 265 MFI; Max MFI [3]: 50 MFI; Max MFI [4]: 53 MFI |
| Hu-125G4A4m-43 (antibody, V domains shown, Humanized antibody, IgG4 S228P (IgG4P) subtype) VH: QVQLVQSGAEVKKPGSSVKVSCKASGYTFTSYYMHWVRQAPGQGLEWMGYIDPANDYSDYNQNFKDRVTITADKSTRTTYMELTSLRSEDTAVYYCARLGYGQSSPFDYWGQGTTVTVSS VL: DIQMTQSPSSLSASVGDRVTITCKASQDIHNYLSWFQQKPGKAPKSLIYRAKRLVEGVPSRFSGSGSGQDYTLTISSLQPEDFATYYCLQYDELYTFGQGTRLEIK | 3260 MFI | 72% |  |
| Hu-125G4A4m-44 (antibody, V domains shown, Humanized antibody, IgG4 S228P (IgG4P) subtype) VH: QVQLVQSGAEVKKPGSSVKVSCKASGYTFTSYYMHWVRQAPGQGLEWMGYIDPANDYSDYNQNFKDRVTITADKSTRTTYMELTSLRSEDTAVYYCARLGYGQSSPFDYWGQGTTVTVSS VL: DIKMTQSPSSLSASVGDRVTITCKASQDIHNYLSWFQQKPGKAPKTLIYRAKRLVEGVPLRFSGSGSGQDYTLTISSLQPEDFATYFCLQYDELYTFGQGTRLEIK | 4510 MFI | 99% |  |
| Hu-125G4A4m-49 (antibody, V domains shown, Humanized antibody, IgG4 S228P (IgG4P) subtype) VH: QVQLVQSGAEVKKPGSSVKVSCKASGYTFTSYYMHWVRQAPGQGLEWMGYIDPANDYSDYNQNFKDRATLTADKSTRTTYMELTSLRSEDTAVYYCARLGYGQSSPFDYWGQGTTVTVSS VL: DIQMTQSPSSLSASVGDRVTITCKASQDIHNYLSWFQQKPGKAPKSLIYRAKRLVEGVPSRFSGSGSGQDYTLTISSLQPEDFATYYCLQYDELYTFGQGTRLEIK | 4080 MFI | 90% |  |
| Hu-125G4A4m-45 (antibody, V domains shown, Humanized antibody, IgG4 S228P (IgG4P) subtype) VH: QVQLVQSGAEVKKPGSSVKVSCKASGYTFTSYYMHWVRQAPGQGLEWMGYIDPANDYSDYNQNFKDRVTITADKSTRTAYMELTSLRSEDTAVYYCARLGYGQSSPFDYWGQGTTVTVSS VL: DIQMTQSPSSLSASVGDRVTITCKASQDIHNYLSWFQQKPGKAPKSLIYRAKRLVEGVPSRFSGSGSGTDYTLTISSLQPEDFATYYCLQYDELYTFGQGTRLEIK | 2630 MFI | 58% |  |
| Hu-125G4A4m-47 (antibody, V domains shown, Humanized antibody, IgG4 S228P (IgG4P) subtype) VH: QVQLVQSGAEVKKPGSSVKVSCKASGYTFTSYYMHWVRQAPGQGLEWMGYIDPANDYSDYNQNFKDRVTITADKSTRTAYMELTSLRSEDTAVYYCARLGYGQSSPFDYWGQGTTVTVSS VL: DIKMTQSPSSLSASVGDRVTITCKASQDIHNYLSWFQQKPGKAPKTLIYRAKRLVEGVPLRFSGSGSGQDYTLTISSLQPEDFATYFCLQYDELYTFGQGTRLEIK | 4100 MFI | 90% |  |
| Hu-125G4A4m-46 (antibody, V domains shown, Humanized antibody, IgG4 S228P (IgG4P) subtype) VH: QVQLVQSGAEVKKPGSSVKVSCKASGYTFTSYYMHWVRQAPGQGLEWMGYIDPANDYSDYNQNFKDRVTITADKSTRTAYMELTSLRSEDTAVYYCARLGYGQSSPFDYWGQGTTVTVSS VL: DIQMTQSPSSLSASVGDRVTITCKASQDIHNYLSWFQQKPGKAPKSLIYRAKRLVEGVPSRFSGSGSGQDYTLTISSLQPEDFATYYCLQYDELYTFGQGTRLEIK | 2520 MFI | 55% |  |
| Hu-125G4A4m-50 (antibody, V domains shown, Humanized antibody, IgG4 S228P (IgG4P) subtype) VH: QVQLVQSGAEVKKPGSSVKVSCKASGYTFTSYYMHWVRQAPGQGLEWMGYIDPANDYSDYNQNFKDRATLTADKSTRTTYMELTSLRSEDTAVYYCARLGYGQSSPFDYWGQGTTVTVSS VL: DIKMTQSPSSLSASVGDRVTITCKASQDIHNYLSWFQQKPGKAPKTLIYRAKRLVEGVPLRFSGSGSGQDYTLTISSLQPEDFATYFCLQYDELYTFGQGTRLEIK | 4840 MFI | 106% |  |
| hybridoma-derived antibody 125G4A4 (antibody, V domains shown, Mouse antibody purified from hybridoma supernatant on Protein A) VH: QVQLQQSGTELAKPGASVKMSCKASGYTFTSYYMHWVKQRPGQILEWIGYIDPANDYSDYNQNFKDKATLTADKSSRTTYMQLTSLTSEDSAVYYCARLGYGNSSPFDYWGQGTTLIVSS VL: DIKMTQSPSSMYASVGERVTITCKASQDIHNYLSWFQQKPGKSPKTLIYRAKRLVDGVPLRFSGSGSGQDYSLTISSLEYEDMGIYFCLQYDELYTFGGGTRLEIK |  |  | EC50 [12]: 0.22 nM; EC50 [13]: 0.84 nM; IC50 [14]: 3.06 nM |

Continued, in another order:

| Max MFI [5] | Max MFI compared with Ch-125G4m-m35 value, % [5] | Molecule | further results |
| --- | --- | --- | --- |
| 4200 MFI | 92% | humanized antibody HMA02h14-48 (antibody, V domains shown, Humanized antibody, IgG4 S228P (IgG4P) subtype; also called Hu-125G4A4m-48; Hu-125G4A4-48) VH: QVQLVQSGAEVKKPGSSVKVSCKASGYTFTSYYMHWVRQAPGQGLEWMGYIDPANDYSDYNQNFKDRATLTADKSTRTTYMELTSLRSEDTAVYYCARLGYGQSSPFDYWGQGTTVTVSS VL: DIQMTQSPSSLSASVGDRVTITCKASQDIHNYLSWFQQKPGKAPKSLIYRAKRLVEGVPSRFSGSGSGTDYTLTISSLQPEDFATYYCLQYDELYTFGQGTRLEIK | EC50 [6]: 1.2 nM; EC50 [7]: 0.6 nM; EC50 [8]: 2.2 nM; EC50 [9]: 3.9 nM; IC50 [10]: 1.58 nM; Kd [11]: 0.777 nM |
| 4120 MFI | 90% | control antibody Hu5F9 (antibody, V domains shown) VH: QVQLVQSGAEVKKPGASVKVSCKASGYTFTNYNMHWVRQAPGQRLEWMGTIYPGNDDTSYNQKFKDRVTITADTSASTAYMELSSLRSEDTAVYYCARGGYRAMDYWGQGTLVTVSS VL: DIVMTQSPLSLPVTPGEPASISCRSSQSIVYSNGNTYLGWYLQKPGQSPQLLIYKVSNRFSGVPDRFSGSGSGTDFTLKISRVEAEDVGVYYCFQGSHVPYTFGQGTKLEIK |  |
| 4550 MFI | 100% | chimeric antibody Ch-125G4-m35 (antibody, V domains shown, Chimeric antibody with human IgG4 (S228P) heavy chain constant region and human kappa light chain constant region; PTM sites mutated (NSS to QSS in the heavy chain, DG to EG in the light chain); also called Ch-125G4m-m35; 125G4A4m) VH: QVQLQQSGTELAKPGASVKMSCKASGYTFTSYYMHWVKQRPGQILEWIGYIDPANDYSDYNQNFKDKATLTADKSSRTTYMQLTSLTSEDSAVYYCARLGYGQSSPFDYWGQGTTLIVSS VL: DIKMTQSPSSMYASVGERVTITCKASQDIHNYLSWFQQKPGKSPKTLIYRAKRLVEGVPLRFSGSGSGQDYSLTISSLEYEDMGIYFCLQYDELYTFGGGTRLEIK |  |
